In this test the target is actin (endogenous nuclear and cytoplasmic actin of Mel-Juso human melanoma cells) (human). Kind of test: cell-based or functional assay.

“DNase 1 construct C13 (signal peptide deleted, A114F actin-binding-site mutation, SV-40 NLS at the N-terminus) (from UniProt P24855 23-282) (enzyme)” returned a TUNEL-positive (apoptotic) cells by laser scanning cytometry, mean of 5.4% and a cell survival in Colony Forming Assay (CFA), compared to Cat-GFP control of 32.4%.

The substance “DNase 1 construct C11 (signal peptide deleted, A114F actin-binding-site mutation, SV-40 NLS at the C-terminus) (from UniProt P24855 23-282) (enzyme)” yielded a TUNEL-positive (apoptotic) cells by laser scanning cytometry, mean of 11% and a cell survival in Colony Forming Assay (CFA), compared to Cat-GFP control of 23.2%.

For the origin of these results see patent publication US20120328590A1.
